Source: article PMC11554844, “BEACH domain proteins function as cargo-sorting adaptors in secretory and endocytic pathways” (The Journal of Cell Biology, 2024)

How the values were obtained:
Experiment in all cases: pull-down; GST-CTLA4 (201–215) immobilised on glutathione-sepharose beads, incubated overnight at 4°C with purified protein (1 µg MBP fusion, 1 µg NBEAL2, 0.2 µg LRBA, or purified 3xFlag-EGFP-NBEAL2 fragment); washed six times in 50 mM Tris-HCl pH 7.4, 150 mM NaCl, 1% Triton X-100; detected by blot (anti-NBEAL2, anti-LRBA, anti-Flag, anti-MBP)
Conditions in all cases: both partners purified
[1] = target: T1, 3xFlag-EGFP-NBEAL2(1792-2754) (human, UniProt Q6ZNJ1-1 1792-2754)
T1 construct: NBEAL2, human, C-terminal fragment with the PH-BEACH-WD40 domains; The legend's upper limit 2794 differs from the plasmid's name; also called C-terminal fragment of NBEAL2; C-terminal (PH-BEACH-WD40 domains) fragment of NBEAL2; source: purified; not shown: 3xFlag, N-terminal, kept; EGFP, N-terminal, kept

[2] = target: T2, Purified full-length untagged LRBA (human, UniProt P50851-1 1-2863)
T2 construct: LRBA, human; also called 3xFlag-EGFP-SUMOstar-LRBA after SUMOstar protease; source: FreeStyle 293-F, transiently transfected, purified (GFP-Trap agarose, eluted with SUMOstar protease); not shown: 3xFlag, N-terminal, cleaved; EGFP, N-terminal, cleaved; SUMOstar, N-terminal, cleaved

[3] = target: T3, Purified full-length untagged NBEAL2 (human, UniProt Q6ZNJ1-1 1-2754)
T3 construct: NBEAL2, human; also called 3xFlag-EGFP-SUMOstar-NBEAL2 after SUMOstar protease; source: FreeStyle 293-F, transiently transfected, purified (GFP-Trap agarose, eluted with SUMOstar protease); not shown: 3xFlag, N-terminal, cleaved; EGFP, N-terminal, cleaved; SUMOstar, N-terminal, cleaved

T2 sequence (P50851 whole entry): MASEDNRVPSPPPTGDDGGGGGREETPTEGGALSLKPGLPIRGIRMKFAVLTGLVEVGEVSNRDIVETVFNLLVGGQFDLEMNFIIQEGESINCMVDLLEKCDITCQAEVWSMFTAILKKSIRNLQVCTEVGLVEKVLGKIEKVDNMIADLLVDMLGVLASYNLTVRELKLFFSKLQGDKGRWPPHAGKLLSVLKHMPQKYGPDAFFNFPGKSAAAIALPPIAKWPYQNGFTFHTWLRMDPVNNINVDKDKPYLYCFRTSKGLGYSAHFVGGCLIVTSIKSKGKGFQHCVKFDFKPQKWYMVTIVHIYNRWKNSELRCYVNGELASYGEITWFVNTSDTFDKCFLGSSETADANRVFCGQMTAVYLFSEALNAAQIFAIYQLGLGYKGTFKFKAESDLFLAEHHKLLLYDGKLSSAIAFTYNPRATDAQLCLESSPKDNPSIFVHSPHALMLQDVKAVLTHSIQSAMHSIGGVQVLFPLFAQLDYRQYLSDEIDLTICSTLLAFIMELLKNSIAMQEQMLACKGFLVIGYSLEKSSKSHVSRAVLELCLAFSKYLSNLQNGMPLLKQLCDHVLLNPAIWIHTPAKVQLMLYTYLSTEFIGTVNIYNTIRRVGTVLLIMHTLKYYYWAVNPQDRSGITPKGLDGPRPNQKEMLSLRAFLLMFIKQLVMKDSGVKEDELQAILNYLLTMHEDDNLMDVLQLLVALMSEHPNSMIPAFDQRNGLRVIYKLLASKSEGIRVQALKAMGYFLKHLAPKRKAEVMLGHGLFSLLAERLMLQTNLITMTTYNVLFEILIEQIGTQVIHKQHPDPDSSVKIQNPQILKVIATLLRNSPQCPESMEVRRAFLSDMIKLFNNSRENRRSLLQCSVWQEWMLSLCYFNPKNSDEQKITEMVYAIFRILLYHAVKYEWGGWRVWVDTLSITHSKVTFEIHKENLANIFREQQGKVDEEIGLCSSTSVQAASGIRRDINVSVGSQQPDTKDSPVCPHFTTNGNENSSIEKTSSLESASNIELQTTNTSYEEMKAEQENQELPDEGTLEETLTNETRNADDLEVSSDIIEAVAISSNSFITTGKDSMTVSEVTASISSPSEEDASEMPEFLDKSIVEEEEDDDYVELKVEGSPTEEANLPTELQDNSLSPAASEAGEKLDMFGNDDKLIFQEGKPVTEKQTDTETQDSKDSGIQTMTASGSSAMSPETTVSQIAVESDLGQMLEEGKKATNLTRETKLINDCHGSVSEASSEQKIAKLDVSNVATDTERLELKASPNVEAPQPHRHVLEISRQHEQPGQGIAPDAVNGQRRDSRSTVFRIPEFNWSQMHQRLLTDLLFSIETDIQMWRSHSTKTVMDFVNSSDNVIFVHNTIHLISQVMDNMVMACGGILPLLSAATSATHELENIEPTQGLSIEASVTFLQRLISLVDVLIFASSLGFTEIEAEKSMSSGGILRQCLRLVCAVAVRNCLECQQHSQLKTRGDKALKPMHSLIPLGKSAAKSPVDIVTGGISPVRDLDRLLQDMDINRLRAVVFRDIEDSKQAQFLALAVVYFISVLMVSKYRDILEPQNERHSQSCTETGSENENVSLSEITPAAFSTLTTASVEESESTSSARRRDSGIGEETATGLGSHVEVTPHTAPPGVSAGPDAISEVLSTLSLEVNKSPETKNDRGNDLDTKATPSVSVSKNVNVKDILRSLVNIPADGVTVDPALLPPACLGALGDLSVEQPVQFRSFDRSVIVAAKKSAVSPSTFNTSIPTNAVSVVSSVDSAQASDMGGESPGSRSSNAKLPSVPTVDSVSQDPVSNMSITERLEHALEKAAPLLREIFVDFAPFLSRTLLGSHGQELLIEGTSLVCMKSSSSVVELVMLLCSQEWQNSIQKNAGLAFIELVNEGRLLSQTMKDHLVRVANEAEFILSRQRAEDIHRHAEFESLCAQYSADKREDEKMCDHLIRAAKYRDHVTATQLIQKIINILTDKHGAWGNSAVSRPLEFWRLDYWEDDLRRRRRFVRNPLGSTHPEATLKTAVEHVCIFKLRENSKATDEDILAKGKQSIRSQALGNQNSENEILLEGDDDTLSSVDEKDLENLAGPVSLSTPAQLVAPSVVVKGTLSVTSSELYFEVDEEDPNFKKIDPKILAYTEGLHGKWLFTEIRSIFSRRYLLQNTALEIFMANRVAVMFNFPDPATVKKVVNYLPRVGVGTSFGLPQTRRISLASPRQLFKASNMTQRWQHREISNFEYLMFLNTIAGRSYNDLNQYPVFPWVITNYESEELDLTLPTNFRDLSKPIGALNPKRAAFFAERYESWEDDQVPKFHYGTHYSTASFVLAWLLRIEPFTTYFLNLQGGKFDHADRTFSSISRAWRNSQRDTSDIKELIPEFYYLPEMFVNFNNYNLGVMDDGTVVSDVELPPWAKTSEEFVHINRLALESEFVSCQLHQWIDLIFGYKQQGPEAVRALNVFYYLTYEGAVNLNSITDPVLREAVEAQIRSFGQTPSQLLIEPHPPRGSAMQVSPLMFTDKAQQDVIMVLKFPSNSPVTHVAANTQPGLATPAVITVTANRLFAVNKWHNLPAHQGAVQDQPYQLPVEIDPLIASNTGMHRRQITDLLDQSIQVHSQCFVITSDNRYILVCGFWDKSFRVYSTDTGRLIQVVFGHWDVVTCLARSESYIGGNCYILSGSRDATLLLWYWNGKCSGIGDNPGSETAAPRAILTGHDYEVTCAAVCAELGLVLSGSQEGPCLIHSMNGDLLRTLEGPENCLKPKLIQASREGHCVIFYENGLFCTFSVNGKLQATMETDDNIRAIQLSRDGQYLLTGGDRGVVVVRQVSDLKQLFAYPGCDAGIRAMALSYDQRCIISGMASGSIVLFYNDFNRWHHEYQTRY
T1 sequence (Q6ZNJ1 1792-2754): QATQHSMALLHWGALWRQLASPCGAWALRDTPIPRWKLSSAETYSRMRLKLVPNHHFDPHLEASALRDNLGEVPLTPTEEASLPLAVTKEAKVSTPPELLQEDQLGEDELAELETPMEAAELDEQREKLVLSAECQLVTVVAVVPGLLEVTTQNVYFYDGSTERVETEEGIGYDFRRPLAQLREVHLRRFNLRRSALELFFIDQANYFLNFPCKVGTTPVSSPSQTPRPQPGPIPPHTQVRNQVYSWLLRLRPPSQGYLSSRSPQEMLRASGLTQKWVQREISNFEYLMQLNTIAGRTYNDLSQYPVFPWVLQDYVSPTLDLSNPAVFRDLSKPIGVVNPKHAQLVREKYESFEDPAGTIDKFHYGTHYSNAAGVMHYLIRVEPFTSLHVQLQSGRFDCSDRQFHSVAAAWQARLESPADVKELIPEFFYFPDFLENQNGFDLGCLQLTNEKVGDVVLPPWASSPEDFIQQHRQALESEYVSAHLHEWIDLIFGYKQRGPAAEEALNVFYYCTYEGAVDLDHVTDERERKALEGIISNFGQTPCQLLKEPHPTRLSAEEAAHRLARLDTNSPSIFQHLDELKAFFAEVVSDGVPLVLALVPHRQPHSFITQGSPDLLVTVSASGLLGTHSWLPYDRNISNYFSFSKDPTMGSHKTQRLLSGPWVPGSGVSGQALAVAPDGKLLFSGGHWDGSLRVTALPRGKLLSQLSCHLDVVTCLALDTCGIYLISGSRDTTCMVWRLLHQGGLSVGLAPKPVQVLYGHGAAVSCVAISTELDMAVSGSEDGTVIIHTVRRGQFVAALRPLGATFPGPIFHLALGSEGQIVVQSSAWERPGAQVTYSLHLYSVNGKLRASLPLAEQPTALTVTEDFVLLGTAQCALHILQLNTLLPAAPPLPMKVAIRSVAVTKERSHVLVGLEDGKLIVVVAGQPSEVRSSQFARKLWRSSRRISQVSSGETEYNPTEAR

- binding result [1]: binds
- binding result [2]: binds
- binding result [3]: binds
B1: GST-CTLA4 (201–215) (domain or fragment, human, UniProt P16410 201-215, looked up)
chain: YVKMPPTEPECEKQF
notes: source: E. coli BL21(DE3), purified on Glutathione Sepharose 4B beads
